In assay [1] the target is Vh1 domain of human vinculin (residues 1–258) (human) (UniProt P18206). The experiment in a line: SPR.
Assay [2] has as its target Human full-length vinculin (residues 1–1,066) (human) (UniProt P18206). The experiment in a line: SPR. In general terms: Surface plasmon resonance follows binding to a sensor surface in real time, without labels.
The target in assay [3] is Vh1 domain of human vinculin (residues 1–258) (human) (UniProt P18206). Kind of assay: native gel or EMSA. Background: A gel shift assay detects complexes by their altered migration in electrophoresis.
Assay [4] has as its target T1, Vh1 domain of human vinculin (residues 1–258) (human, UniProt P18206 1-258).
T1 sequence (looked up): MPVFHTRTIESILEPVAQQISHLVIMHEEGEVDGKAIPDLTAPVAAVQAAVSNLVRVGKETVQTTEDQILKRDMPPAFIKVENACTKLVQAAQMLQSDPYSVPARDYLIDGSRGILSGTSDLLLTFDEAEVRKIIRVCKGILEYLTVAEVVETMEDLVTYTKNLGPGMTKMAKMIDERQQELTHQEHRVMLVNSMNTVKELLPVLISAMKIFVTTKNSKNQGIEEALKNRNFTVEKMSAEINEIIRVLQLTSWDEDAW
Kind of assay: SPR.

The target of assay [5] is T1, Vh1 domain of human vinculin (residues …). The experiment in a line: crystal structure.
For assay [6] the target is unchanged. The experiment in a line: native gel or EMSA.

As usually defined, the Kd is the equilibrium constant for the complex coming apart. A lower Kd goes with tighter binding. As a reminder, the stoichiometry N is a count of units in the complex or per binding partner.

The molecule IpaA-VBS2-Y567I peptide registered a dissociation constant (Kd) in assay [1] of 15000 pM.

For the molecule “IpaA-Cterm (C-terminal domain of IpaA, residues 559–633) (from UniProt P18010 559-633) (domain or fragment)”, the Kd came to 35.2 pM in assay [2] and 0.0062 pM in assay [1]. The stoichiometry N in assay [3] stood at 1.

B1: IpaA-VBS2 peptide (IpaA residues 565–587) (peptide, UniProt P18010 565-587, looked up)
peptide: AIYEKAKEVSSALSKVLSKIDDT
B1 showed a Kd in assay [4] of 6610 pM. This counts as single-digit nanomolar.

B2: IpaA-VBS2-K569A peptide (peptide)
peptide: AIYEAAKEVSSALSKVLSKIDDT
As to B2, the Kd in assay [4] was 530 pM.

B3: IpaA residues 602–633 (containing the IpaA-VBS), peptide of the crystal structure (peptide, UniProt P18010 602-633, looked up)
peptide: NNDITAENNNIYKAAKDVTTSLSKVLKNINKD
For the molecule B3, the binding result in assay [5] was “binds”.

B4: Vt domain of human vinculin (residues 879–1,066) (domain or fragment, UniProt P18206-2 879-1066, looked up)
chain: EEKDEEFPEQKAGEVINQPMMMAARQLHDEARKWSSKGNDIIAAAKRMALLMAEMSRLVRGGSGTKRALIQCAKDIAKASDEVTRLAKEVAKQCTDKRIRTNLLQVCERIPTISTQLKILSTVKATMLGRTNISDEESEQATEMLVHNAQNLMQSVKETVREAEAASIKIRTDAGFTLRWVRKTPWYQ
Consider B4, for which the binding result in assay [6] is “binds”.

B5: IpaA-VBS peptide (IpaA residues 611–633) (peptide, UniProt P18010 611-633, looked up)
peptide: NIYKAAKDVTTSLSKVLKNINKD
Regarding B5, the Kd in assay [4] came to 110 pM.

B6: IpaA-VBS-Y613I peptide (peptide)
peptide: NIIKAAKDVTTSLSKVLKNINKD
For the molecule B6, the Kd in assay [4] worked out at 270 pM. This Kd is about 2.5-fold higher than that of the molecule before.
